Assay results reported in patent US20140186359A1 (TORAY INDUSTRIES, published 2014).

B1: chicken monoclonal antibody #3 (antibody, V domains shown)
VH: AVTLDESGGGLQTPGGGLSLVCKGSGFTFSSFGMFWVRQAPGKGLEFVASISDNGRSTYYGSAVKGRATISRDDGQSTVRLQLNNLRAEDTGTYYCAKNAYVGRGCCFSYSIDAWGHGTEVIVS
VL: ALTQPASVSVNPGETVKITCSGGGSSSDAYGWYQQKSPGSAPVTLIYNGSNRPSHIPSRFSGSTSGSTNTLTITGVQVEDEAIYFCGSTDTSTSVGIFGAGTTLTV
notes: Chicken hybridoma antibody; also called anti-CAPRIN-1 chicken monoclonal antibody #3
B2: mouse monoclonal antibody #1 (antibody, V domains shown)
VH: GPGLVQPSQSLSITCTVSGFSLTTYDLHWVRQSPGKGLEWLGVIWSGGSTDYNAAFISRLSISKDNSKSQVFFKMNSLQANDTAIYYCARNYGYSAWFAYWGQGTLVTVSA
VL: DVLMTQTPLSLPVSLGDQASISCRSSQSIVHSNGNTYLEWYLQKPGQSPKLLIYKVSNRFSGVPDRFSGSGSGTDFTLKISRVEAEDLGVYYCFQGSHVPLTFGAGTKLELKR
notes: Mouse hybridoma antibody; detected with anti-mouse IgG; also called anti-CAPRIN-1 monoclonal antibody #1
B3: chicken monoclonal antibody #4 (antibody, V domains shown)
VH: AVTLDESGGGLQTPGGAVSLVCKGSGFTFSSYGMGWVRQAPGKGLEYVAAIRKDGSTNYGPAVKGRATISRDNGQSTVRLQLSNLRAEDTATYYCAKRSHTGVNAAKIDAWGRGTEVIVS
VL: ALTQPASVSANPGETVKITCSGASHNYGWFQQKSPGSAPVTVIYSNDKRPSDIPSRFSGSKSGSTATLTITGVQADDEAVYFCGGYNIYGPTFGAGTTLTV
notes: Chicken hybridoma antibody; also called anti-CAPRIN-1 chicken monoclonal antibody #4
B4: chicken monoclonal antibody #1 (antibody, V domains shown)
VH: AVTLDESGGGLQTPGGALSLVCKASGFTFRSHSMFWVRQAPGKGLEYVAGIYGVGRSIRYGSAVKGRATMSRDNGQSTVRLQLNNLRAEDTATYYCAKSGYFSNSRYWDSGAYFIDAWGHGTEVIVS
VL: ALTQPASVSANPGETVEITCSGGYSNYGWYQQKSPGSAPVTVIYYNDKRPSDIPSRFSGSKSGSTATLTITGVQAEDEAVYFCGGYDSSTDAGIFGAGTTLTV
notes: Chicken hybridoma antibody; also called anti-CAPRIN-1 chicken monoclonal antibody #1
B5: mouse monoclonal antibody #2 (antibody, V domains shown)
VH: GGGLVKPGGSLKLSCAASGFTFSSYGMSWVRQTPEKRLEWVATISSGGSYTYYPDSVKGRFTISRDNAKNTLYLQMSSLRSEDTAMYYCASLASYYFDYWGQGTTLTVSS
VL: DVQMIQSPSSLSASLGDIVTMTCQASQGTSINLNWFQQKPGKAPKLLIYGASSLEDGVPSRFSGSCFGTDFTLTISSLEDEDMATYFCLQHSYLPPLTFGAGTKLELKR
notes: Mouse hybridoma antibody; detected with anti-mouse IgG; also called anti-CAPRIN-1 monoclonal antibody #2
B6: human-mouse chimeric comparative monoclonal antibody 10 (antibody, human IgG1, kappa)
heavy: not shown
light: RLPFYSLEQRATISYRASKNVSTSGYSYMHWNQQKPGQPPKLLIYLVSNLESGVPARFSGSGSGTDFTLNIHPVEEEDAATYYCQHIRELTRSELVPSWKSNTVAAPSVFIFPPSDEQLKSGTASVVCLLNNFYPREAKVQWKVDNALQSGNSQESVTEQDSKDSTYSLSSTLTLSKADYEKHKVYACEVTHQGLSSPVTKSFNRGEC
B7: human-mouse chimeric comparative monoclonal antibody 7 (antibody, human IgG1, kappa, V domains shown)
VH: LQESGAELARPGASVKLSCKASGYTFTSYWMQWVKQRPGQGLEWIGAIYPGDGDTRYTQKFKGKATLTADKSSSTAYMQLSSLASEDSAVYYCARGEYGNYFAYWGQGTTVTVSS
VL: TSDASLGERVTITCKASQDINSYLSWFQQKPGKSPKTLIYRANRLVDGVPSRFSGSGSGQDYSLTISSLEYEDMGIYYCLQYDEFPLTFGGGTKLEIKQ
B8: human-mouse chimeric comparative monoclonal antibody 5 (antibody, human IgG1, kappa)
heavy: not shown
light: GLFCSVERCHYQLQSSQNLLSIVNRYHYMSGNPPKLLVYPALLIYEASITKSCVPDRFTRSGSGTNFTLTINFVHADDLIFYYCQHNRGSFLPSSSVQVPRRRSNTVAAPSVFIFPPSDEQLKSGTASVVCLLNNFYPREAKVQWKVDNALQSGNSQESVTEQDSKDSTYSLSSTLTLSKADYEKHKVYACEVTHQGLSSPVTKSFNRGEC
B9: human-mouse chimeric comparative monoclonal antibody 6 (antibody, human IgG1, kappa)
heavy: not shown
light: DRVSITCKASQNVRTAVAWYQQKPRQSPKALIYLASNRDTGLPDRFPGRGSGTDFTLNITNVQSEDLEDYFCLQHCNYPNEFRGCTKVPITVAAPSVFIFPPSDEQLKSGTASVVCLLNNFYPREAKVQWKVDNALQSGNSQESVTEQDSKDSTYSLSSTLTLSKADYEKHKVYACEVTHQGLSSPVTKSFNRGEC
B10: human-mouse chimeric comparative monoclonal antibody 4 (antibody, human IgG1, kappa, V domains shown)
VH: EVQLHQFGAELVKPGASVKISCKASGYTFTDYNMDWVKQSHGKSLEWIGDINPNYDSTSYNQKFKGKATLTVDKSSSTAYMELRSLTSEDTAVYYCARSRSYDYEGFAYWGQGTLVTVSA
VL: SGDRVSLSCRASQSISNYLHWYQQKSHESPRLLIKYASQSISGIPSRFSGSGSGTDFTLSINSVETEDFGMYFCQQSNSWPYTFGAGTKLEIKQ
B11: human-mouse chimeric comparative monoclonal antibody 8 (antibody, human IgG1, kappa)
heavy: not shown
light: EFHAVSLGQRATISCRASESVDSYGNSFMHWYQQKPGQPPKLLIYRASNLESGIPARFSGSGSRTDFTLTINPVEADDVATYYCQQSNEDPGRSEVVPSWRSNKTVAAPSVFIFPPSDEQLKSGTASVVCLLNNFYPREAKVQWKVDNALQSGNSQESVTEQDSKDSTYSLSSTLTLSKADYEKHKVYACEVTHQGLSSPVTKSFNRGEC

Molecular target: T1, human CAPRIN-1 expressed on the surface of human cancer cells (human, UniProt Q14444 2-709)
T1 construct: Endogenous CAPRIN-1 of human cancer cell lines or tissues; also called CAPRIN-1 proteins on the cell membrane surface
T1 sequence: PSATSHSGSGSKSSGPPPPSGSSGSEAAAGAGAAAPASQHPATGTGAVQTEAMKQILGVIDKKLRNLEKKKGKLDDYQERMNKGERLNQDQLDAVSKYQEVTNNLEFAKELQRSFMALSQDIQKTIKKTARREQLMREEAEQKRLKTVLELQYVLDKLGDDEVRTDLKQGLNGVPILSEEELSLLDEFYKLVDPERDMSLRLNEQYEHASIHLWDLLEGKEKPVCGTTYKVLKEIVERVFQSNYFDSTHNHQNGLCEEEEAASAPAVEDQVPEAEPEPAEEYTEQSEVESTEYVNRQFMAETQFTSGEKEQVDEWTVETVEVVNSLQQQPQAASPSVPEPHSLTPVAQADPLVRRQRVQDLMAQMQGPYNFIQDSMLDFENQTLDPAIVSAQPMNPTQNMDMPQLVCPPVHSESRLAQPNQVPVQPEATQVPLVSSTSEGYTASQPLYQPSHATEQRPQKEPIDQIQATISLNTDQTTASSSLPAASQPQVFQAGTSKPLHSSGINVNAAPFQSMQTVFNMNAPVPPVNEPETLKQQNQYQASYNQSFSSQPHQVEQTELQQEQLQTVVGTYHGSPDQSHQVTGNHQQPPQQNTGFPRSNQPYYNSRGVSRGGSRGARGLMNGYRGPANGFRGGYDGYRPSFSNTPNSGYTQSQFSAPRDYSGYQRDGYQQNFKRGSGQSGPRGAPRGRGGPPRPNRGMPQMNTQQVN
Assay: flow cytometry on the listed human cancer cell lines, culture supernatant, against secondary antibody only
Method: 10⁶ cells of each cell line were centrifuged in each 1.5-ml microcentrifuge tube. Each culture supernatant (100 μl) containing any of the antibodies #1, #2, and #3 and the chicken monoclonal antibodies #1, #2, #3, and #4 was added to the tube and left to stand for 1 hour on ice. After washing with PBS, FITC-labeled goat anti-mouse IgG (H+L) antibodies (manufactured by Jackson ImmunoResearch Laboratories, Inc.) diluted with PBS containing 0.1% FBS for the mouse-derived antibodies or FITC-labeled goat anti-chicken IgG (H+L) antibodies (manufactured by SouthernBiotech) diluted 100-fold with PBS containing 0.1% FBS for the chicken-derived antibodies were added thereto and left to stand at 4° C. for 30 minutes. After washing with PBS, the fluorescence intensity was measured using FACSCalibur (Becton, Dickinson and Company). The negative control used was cells reacted only with secondary antibodies. As a result, all the cells each treated with any of the antibodies #1, #2, and #3 and the chicken monoclonal antibodies #1 to #4 had fluorescence intensity at least 35% stronger than that of the negative control. […] The rates of enhancement in the fluorescence intensity was expressed as the rates of increase in mean fluorescence intensity (MFI) in respective cell lines, which are calculated according to the following formula.

Binder	rate of increase in mean fluorescence intensity
B1	≥ 35%
B2	≥ 35%
B3	≥ 35%
B4	≥ 35%
B5	≥ 35%

Molecular target: T1, human CAPRIN-1 expressed on the surface …
Assay: cell-based or functional assay

Binder	ADCC cytotoxic activity (51Cr release) against Caki-2	ADCC cytotoxic activity (51Cr release) against HCT-116	ADCC cytotoxic activity (51Cr release) against MCF7	ADCC cytotoxic activity (51Cr release) against MIAPaCa-2	ADCC cytotoxic activity (51Cr release) against QG56	ADCC cytotoxic activity (51Cr release) against all other cancer cell lines listed
B6	< 8%	< 3%	< 5%	7%	< 5%	< 4%
B7	< 8%	< 3%	< 5%	7%	< 5%	< 4%
B8	< 8%	< 3%	< 5%	7%	< 5%	< 4%
B9	< 8%	< 3%	< 5%	7%	< 5%	< 4%
B10	< 8%	< 3%	< 5%	7%	< 5%	< 4%
B11	< 8%	< 3%	< 5%	7%	< 5%	< 4%
